Target: NIST mAb
Assay: AUC

NIST mAb (antibody)
3%: amount of dimer (%), fit of 20 scans | amount of dimer (%), fit of 50 scans | amount of dimer (%), fit of 100 scans | amount of dimer (%), fit of 250 scans

From publication PMC9232890
